How the values were obtained:
[1] = tested on: Pratylenchus penetrans; assay: In vitro live/dead count of Pratylenchus penetrans; type: cell-based; design: concentration of papain latex that killed the nematodes: unit not given here
Description: (§1) Eggs of M. incognita race 1 from North Carolina State University, USA were collected from tomato-infected roots grown in a glasshouse at 23° C. in a 16:8 h light-dark regime. Eggs were extracted using 1% hypochlorite (NaClO) solution (Hussey and Barker, 1973) or by picking egg masses from tomato-infected roots. Juveniles (J2) were hatched from the eggs and egg masses in water. Heterodera glycines eggs were obtained from soil samples stored in Rothamsted-Research. Second stage juveniles (J2) were hatched from the eggs in water after 10 days. Pratylenchus penetrans were a gift from Dr. Deeren Anne-Marie from the Institute for Agricultural and Fisheries Research, Merelbeke, Belgium. The beneficial nematodes Steinernema feltiae and Heterorhabditis megidis were a gift from Dr. Paul Williams from Becker Underwood.
Control wells were set up which contained J2s and distilled water with 16 mM L-cysteine. Each enzyme concentration and the controls were set up in duplicate (i.e. n=2). […] The number of live and dead J2s per well was counted after each enzyme incubation. The same procedure was followed when setting up further experiments to compare the effects of these enzymes with Heterodera glycines J2, Pratylenchus penetrans, Steinernema feltiae and Heterorhabditis megidis.

[2] = tested on: Heterorhabditis megidis; assay: In vitro effect on the beneficial nematode Heterorhabditis megidis; type: cell-based
Description: as §1
(§2) Control wells were set up which contained J2s and distilled water with 16 mM L-cysteine. Each enzyme concentration and the controls were set up in duplicate (i.e. n=2). The actual number of active J2s per well was counted with the aid of an Olympus inverted microscope, prior to the addition of the enzymes, and then the J2s were incubated in the dark at room temperature for 2 hs, 16 hs, 24 hs or 40 hr. The number of live and dead J2s per well was counted after each enzyme incubation. The same procedure was followed when setting up further experiments to compare the effects of these enzymes with Heterodera glycines J2, Pratylenchus penetrans, Steinernema feltiae and Heterorhabditis megidis.
(§3) The beneficial nematodes Hetorhabditis megidis and Steinernema feltiae were incubated with dilutions of actinidin, bromelain and pappain from papaya latex (see concentrations used in table 3). These nematodes reacted differentially to these cysteine proteinases (Tables 4 and 5). […] S. feltiae were dead at all concentrations of actinidin tested. […] After 16 hs of observation the enzyme solutions were diluted with water (to half of the initial concentrations) however, no change in nematode movement was observed after 24 hs.

[3] = tested on: Steinernema feltiae; assay: In vitro effect on the beneficial nematode Steinernema feltiae; type: cell-based
Description: as §1, §2, §3

[4] = tested on: M. incognita J2; assay: In planta bioassay, two soil applications: nematode infection of tomato roots; type: in vivo, M. incognita on tomato plants; conditions: two soil applications of enzyme (250 μM papain, 2.2 μM bromelain, 3.3 mM actinidin as printed), soil 16% organic matter, 11 days
Description: Oxamyl is supplied as 10% liquid Vydate. 125 μl of a solution 1000 fold dilution of 10% formulation (kindly supplied by DK from NIU) was applied to 5 g of the soil mixture with 16% organic matter, to give a partial nematicidal effect. Soil mixtures were wetted with PBS pH 7.2, 16 hrs prior nematode application of 1000 or 2000 M. incognita J2. Infected soil mixtures were treated with water (control) or 250 μM of active papain in 16 mM of L-cysteine or a combination of Vydate and 250 μM of active papain in 16 mM of L-cysteine. After 48 hs tomato seedlings one month old were added to the treated soils. After 11 days the roots were washed free of soil and chopped to approximately 2 mm pieces. The root pieces of each tomato plant was placed in muslin bags and stained with acid-fuchsin. The stained roots were examined under microscope and all the nematodes present in the roots were counted. […] After 48 hours tomato seedlings one month old were added to the treated soils and after 11 days post infection nematode development inside root tissues was assessed as described above.
The avermectins are macrocyclic lactones produced by the actinomycete Streptomyces avermitilis. […] After 48 hs tomato seedlings one month old were added to the treated soils and after 11 days post infection nematode development inside root tissues was assessed as described above. […]

B1: papain (protein, UniProt P00784 134-345, looked up)
Papain: IPEYVDWRQKGAVTPVKNQGSCGSCWAFSAVVTIEGIIKIRTGNLNEYSEQELLDCDRRSYGCNGGYPWSALQLVAQYGIHYRNTYPYEGVQRYCRSREKGPYAAKTDGVRQVQPYNEGALLYSIANQPVSVVLEAAGKDFQLYRGGIFVGPCGNKVDHAVAAVGYGPNYILIKNSWGTGWGENGYIRIKRGTGNSYGVCGLYTSSFYPVKN
notes: cysteine proteinase from Carica papaya, Merops C01.001, Sigma P3125
[1]
  concentration of papain latex that killed the nematodes: 62.504
[1]; after 48 hs
  recovery of mobility: no recovery of mobility
[2]; papain 15 μM
  effect on H. megidis: not affected anymore
[2]; papain 62.4 μM
  movement of H. megidis: moving slowly
[3]
  only papain concentration that affected S. feltiae movement: 250 µM
[3]; enzyme concentration A (Table 3): actinidin 3.3 mM, bromelain 2.2 mM, papain 250 uM
  nematode motility or behaviour: 70% paralysed
[3]; enzyme concentration B: actinidin 1.7 mM, bromelain 1.1 mM, papain 125 uM
  nematode motility or behaviour: All moving slowly
[4]
  reduction of nematode infection of plants: 89%

Reference: patent US20110239327A1, “Nematicidal Effects of Cysteine Proteinases and Methods of Use Thereof to Treat Nematode Infestation” (priority 2007, published 2011)
